Consider seven molecules from US20190284272A1 (published 2019).

Broadly, the Kd is the concentration at which binding is half-saturated.

For experiment [1], the target named is T1, canine IL-31 protein (Canine_IL31) (canine).
T1 construct: Recombinant, secreted from CHO cells; also called cIL-31; canine cytokine
T1 chain: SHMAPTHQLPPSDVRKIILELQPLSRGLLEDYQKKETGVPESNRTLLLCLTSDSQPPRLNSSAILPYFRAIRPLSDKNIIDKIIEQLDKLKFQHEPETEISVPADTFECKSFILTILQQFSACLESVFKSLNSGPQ
The experiment can be described thus: Biacore, canine IL-31 surface, single antibody concentration (FIG. 4). As to the method: (§1) The affinity with which candidate mAbs bind canine and feline IL-31 was determined using surface plasmon resonance (SPR) on a Biacore system (Biocore Life Sciences (GE Healthcare), Uppsala, Sweden). To avoid affinity differences associated with differential surface preparation that can occur when immobilizing antibodies to surfaces; a strategy was employed where IL-31 was directly conjugated to the surface. Immobilization was obtained by amine coupling 5 μg/mL IL-31 using N-hydroxysuccinimide (NHS)/1-Ethyl-3-(3-dimethylaminopropyl) carbodiimide (EDC) chemistry. Chips were quenched with ethanolamine and the affinity with which all candidate mAbs bound to the immobilized IL-31 was evaluated. All curves were fit to a 1:1 model. […] Results for affinity measurements are described herein.
For the indirect ELISA method, antibody binding to wildtype and feline IL-31 15H05 mutant proteins was assessed. All nine canine monoclonal antibodies (ZIL1, ZIL8, ZIL8, ZIL11, ZIL69, ZIL94, ZIL154, ZIL159, and ZIL171) were capable of binding to wildtype feline IL-31 and binding was impacted by mutations in the mAb 15H05 epitope region confirming the correct binding phenotype determined during the initial screening used to identify them. […]
On the technique in general: SPR reads the build-up and loss of mass on a sensor chip optically.

The target of experiment [2] is T1, canine IL-31 protein (Canine_IL31). The experiment is described as follows: cell-based or functional assay.
Experiment [3] has the same target. The experiment can be described thus: SPR (Biacore), IL-31 protein as surface. How it is done:
as §1
Table 1 below describes the results for biacore analysis using multiple species of IL-31 protein as a surface capture.

Experiment [4] has as its target T2, canine IL-31 protein (Canine_IL31).
T2 chain: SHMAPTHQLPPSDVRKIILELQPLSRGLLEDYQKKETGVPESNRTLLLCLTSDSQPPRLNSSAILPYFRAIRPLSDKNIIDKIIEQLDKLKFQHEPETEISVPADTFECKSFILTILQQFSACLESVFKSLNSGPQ
The experiment is described as follows: Biacore.

The target of experiment [5] is T1, canine IL-31 protein (Canine_IL31). The experiment can be described thus: cell-based or functional assay.
Experiment [6] shares this target. The experiment is described as follows: SPR (Biacore), FIG. 2 Section B. As to the method:
as §1
FIG. 2 details the affinity of antibodies with CDRs derived from mouse origin using biacore. […] These observations confirm the correct sequence for both mouse antibodies and indicate conversion to the chimeric form results in antibodies with equivalent or higher affinity when compared to the mouse parent with the exception of the mouse:feline 15H05 chimera which lost some affinity to both IL-31 species as a result of its conversion to the chimeric form. […]

B1: ZIL154 (antibody, V domains shown)
VH: EVHLVESGGDLVKPWGSLRLSCVASGFTFSDRGMSWVRQSPGKGLQWVAYIRYDGSRTDYADAVEGRFTISRDNAKNTLYLQMNSLRAEDTAVYYCARWDGSSFDYWGQGTLVTVSS
VL: DIVVTQTPLSLSVSPGETASFSCKASQSLLHSDGNTYLDWFRQKPGQSPQRLIYKVSNRDPGVPDRFSGSGSGTDFTLRISGVEADDAGLYYCMQAIHFPLTFGAGTKVELKR
notes: Recombinant fully canine IgG (65_1), HEK 293; also called CAN-ZIL154
On to B1, for which, in experiment [1], the binding result is recorded as “no binding”.

B2: mouse anti IL-31 antibody 15H05 (antibody, mouse IgG1, kappa)
heavy: QVQLQQSAAELARPGASVKMSCKTSGYTFTSYTIHWIKQRPGQGLEWIGNINPTSGYTENNQRFKDKTTLTVDRSSNTAYLQLHSLTSEDSAVYFCARWGFKYDGEWSFDVWGAGTTVTVSSKTTPPSVYPLAPGSAAQTNSMVTLGCLVKGYFPEPVTVTWNSGSLSSGVHTFPAVLESDLYTLSSSVTVPSSPRPSETVTCNVAHPASSTKVDKKIVPRDCGCKPCICTVPEVSSVFIFPPKPKDVLTITLTPKVTCVVVDISKDDPEVQFSWFVDDVEVHTAQTQPREEQFNSTFRSVSELPIMHQDWLNGKEFKCRVNSAAFPAPIEKTISKTKGRPKAPQVYTIPPPKEQMAKDKVSLTCMITDFFPEDITVEWQWNGQPAENYKNTQPIMNTNGSYFVYSKLNVQKSNWEAGNTFTCSVLHEGLHNHHTEKSLSHSPGK
light: DIQMNQSPSSLSASLGDTITVTCRASQGISIWLSWYQQKPGNIPKVLINKASNLHIGVPPRFSGSGSGTHFTLTITSLQPEDIATYYCLQSQTYPLTFGGGTKLEINADAAPTVSIFPPSSEQLTSGGASVVCFLNNFYPKDINVKWKIDGSERQNGVLNSWTDQDSKDSTYSMSSTLTLTKDEYERHNSYTCEATHKTSTSPIVKSFNRNEC
notes: Mouse hybridoma antibody, mouse IgG1 heavy and mouse kappa light constant regions; also called Mu-15H05; MU-15H05
For the molecule B2, the “Inhibition of IL-31 induced pSTAT3 IC50 (µg/ml), Canine IL-31 on Canine DH82 cells” value (from here on “Inhibition of IL-31 induced pSTAT3 IC50”) in experiment [2] is 11.2 µg/ml. Besides, the Kd was 1.91 pM in experiment [3] and 4.87 pM in experiment [4].

B3: 15H05 mouse: canine chimera (antibody)
heavy: QVQLQQSAAELARPGASVKMSCKTSGYTFTSYTIHWIKQRPGQGLEWIGNINPTSGYTENNQRFKDKTTLTVDRSSNTAYLQLHSLTSEDSAVYFCARWGFKYDGEWSFDVWGAGTTVTVSSASTTAPSVFPLAPSCGSTSGSTVALACLVSGYFPEPVTVSWNSGSLTSGVHTFPSVLQSSGLYSLSSMVTVPSSRWPSETFTCNVAHPASKTKVDKPVPKRENGRVPRPPDCPKCPAPEMLGGPSVFIFPPKPKDTLLIARTPEVTCVVVDLDPEDPEVQISWFVDGKQMQTAKTQPREEQFNGTYRVVSVLPIGHQDWLKGKQFTCKVNNKALPSPIERTISKARGQAHQPSVYVLPPSREELSKNTVSLTCLIKDFFPPDIDVEWQSNGQQEPESKYRTTPPQLDEDGSYFLYSKLSVDKSRWQRGDTFICAVMHEALHNHYTQESLSHSPGK
light: DIQMNQSPSSLSASLGDTITVTCRASQGISIWLSWYQQKPGNIPKVLINKASNLHIGVPPRFSGSGSGTHFTLTITSLQPEDIATYYCLQSQTYPLTFGGGTKLEINRNDAQPAVYLFQPSPDQLHTGSASVVCLLNSFYPKDINVKWKVDGVIQDTGIQESVTEQDKDSTYSLSSTLTMSSTEYLSHELYSCEITHKSLPSTLIKSFQRSEC
B3: the “IC50 against canine IL-31 (pSTAT3 assay; cell type not clear)” value in experiment [5] amounted to 12.5 µg/ml.

B4: Feline 11E12 1.2 (antibody, V domains shown)
VH: QVLLVQSGAEVKKPGASVKIFCKASGYSFTYYDINWLRQAPEQGLEWMGWIFPGDGGTKYNETFKGRLTLTADTSTNTVYMELSSLRSADTAMYYCARGGTSVIRDAMDYWGQGALVTVSS
VL: EVVLTQSSAFLSRTLKEKATITCRASESVDNYGISFMHWYQQKPNQAPKLLVKRASNLESGAPSRFSGSGSGTDFTLTISSPEPEDAATYYCQQSNKDPLTFGQGT
notes: also called felinized 11E12 1.2
On to B4, for which the binding result in experiment [6] is “no binding”.

B5: mouse: feline 15H05 chimera (antibody)
heavy: QVQLQQSAAELARPGASVKMSCKTSGYTFTSYTIHWIKQRPGQGLEWIGNINPTSGYTENNQRFKDKTTLTVDRSSNTAYLQLHSLTSEDSAVYFCARWGFKYDGEWSFDVWGAGTTVTVSSASTTAPSVFPLAPSCGTTSGATVALACLVLGYFPEPVTVSWNSGALTSGVHTFPAVLQASGLYSLSSMVTVPSSRWLSDTFTCNVAHPPSNTKVDKTVRKTDHPPGPKPCDCPKCPPPEAAGAPSIFIFPPKPKDTLSISRTPEVTCLVVDLGPDDSDVQITWFVDNTQVYTAKTSPREEQFNSTYRVVSVLPILHQDWLKGKEFKCKVNSKSLPSPIERTISKAKGQPHEPQVYVLPPAQEELSRNKVSVTCLIKSFHPPDIAVEWEITGQPEPENNYRTTPPQLDSDGTYFVYSKLSVDRSHWQRGNTYTCSVSHEALHSHHTQKSLTQSPGK
light: DIQMNQSPSSLSASLGDTITVTCRASQGISIWLSWYQQKPGNIPKVLINKASNLHIGVPPRFSGSGSGTHFTLTITSLQPEDIATYYCLQSQTYPLTFGGGTKLEINRSDAQPSVFLFQPSLDELHTGSASIVCILNDFYPKEVNVKWKVDGVVQNKGIQESTTEQNSKDSTYSLSSTLTMSSTEYQSHEKFSCEVTHKSLASTLVKSFQRSECQRE
As for B5, the “IC50 against canine IL-31 (pSTAT3 assay; cell type not clear)” value in experiment [5] was 28.6 µg/ml. The molecule also returned a Kd in experiment [4] of 12.9 pM.

B6: ZTS-361 (antibody)
heavy: QVLLVQSGAEVRTPGASVKIFCKASGYSFTSYTIHWLRQAPAQGLEWMGNINPTSGYTENNQRFKDRLTLTADTSTNTAYMELSSLRSADTAMYYCARWGFKYDGEWSFDVWGAGTTVTVSSASTTAPSVFPLAPSCGTTSGATVALACLVLGYFPEPVTVSWNSGALTSGVHTFPAVLQASGLYSLSSMVTVPSSRWLSDTFTCNVAHPPSNTKVDKTVRKTDHPPGPKPCDCPKCPPPEAAGAPSIFIFPPKPKDTLSISRTPEVTCLVVDLGPDDSDVQITWFVDNTQVYTAKTSPREEQFNSTYRVVSVLPILHQDWLKGKEFKCKVNSKSLPSPIERTISKAKGQPHEPQVYVLPPAQEELSRNKVSVTCLIKSFHPPDIAVEWEITGQPEPENNYRTTPPQLDSDGTYFVYSKLSVDRSHWQRGNTYTCSVSHEALHSHHTQKSLTQSPGK
light: EIQMTQSPSSLSASPGDRVTITCRASQGISIWLSWYQQKPGNIPKVLINKASNLHIGVPSRFSGSGSGTDFTLTISSLEPEDAATYYCLQSQTYPLTFGGGTKLEIKRSDAQPSVFLFQPSLDELHTGSASIVCILNDFYPKEVNVKWKVDGVVQNKGIQESTTEQNSKDSTYSLSSTLTMSSTEYQSHEKFSCEVTHKSLASTLVKSFQRSECQRE
notes: Felinized 15H05 1.1 FW2, effector-null feline heavy constant region
As for B6, the “Inhibition of IL-31 induced pSTAT3 IC50” value in experiment [2] was found to be 23 µg/ml. The affinity in experiment [3], expressed as Kd, was 2.41 pM.

B7: ZTS-1505 (antibody)
heavy: QVLLVQSGAEVRTPGASVKIFCKASGYSFTSYTIHWLRQAPAQGLEWMGNINPTSGYTENNQRFKDRLTLTADTSTNTAYMELSSLRSADTAMYYCARWGFKYDGEWSFDVWGAGTTVTVSSASTTAPSVFPLAPSCGTTSGATVALACLVLGYFPEPVTVSWNSGALTSGVHTFPAVLQASGLYSLSSMVTVPSSRWLSDTFTCNVAHPPSNTKVDKTVRKTDHPPGPKPCDCPKCPPPEAAGAPSIFIFPPKPKDTLSISRTPEVTCLVVDLGPDDSDVQITWFVDNTQVYTAKTSPREEQFNSTYRVVSVLPILHQDWLKGKEFKCKVNSKSLPSPIERTISKAKGQPHEPQVYVLPPAQEELSRNKVSVTCLIKSFHPPDIAVEWEITGQPEPENNYRTTPPQLDSDGTYFVYSKLSVDRSHWQRGNTYTCSVSHEALHSHHTQKSLTQSPGK
light: EIQMTQSPSSLSASPGDRVTITCRASQGISIWLSWYQQKPGNIPKVLINKASNLHIGVPSRFSGSGSGTDFTLTISSLEPEDAATYYCLQSQTYPLTFGGGTKLEIKRSDAQPSVFLFQPSLDELHTGSASIVCILNDFYPKEVNVKWKVDGVVQNKGIQESTTEQNSKDSTYSLSSTLTMSSTEYQSHEKFSCEVTHKSLASTLVKSFQRSEC
notes: also called ZT-1 505
With B7, the “Inhibition of IL-31 induced pSTAT3 IC50” value in experiment [2] amounted to 21.8 µg/ml. This molecule returned a Kd in experiment [3] of 1.83 pM.
